Values quoted from earlier work as cited in publication PMC5012591.

Biological target: flagellar motor switch protein FliM (Escherichia coli) (UniProt P06974)
UniProt P06974, sequence (P06974 whole entry): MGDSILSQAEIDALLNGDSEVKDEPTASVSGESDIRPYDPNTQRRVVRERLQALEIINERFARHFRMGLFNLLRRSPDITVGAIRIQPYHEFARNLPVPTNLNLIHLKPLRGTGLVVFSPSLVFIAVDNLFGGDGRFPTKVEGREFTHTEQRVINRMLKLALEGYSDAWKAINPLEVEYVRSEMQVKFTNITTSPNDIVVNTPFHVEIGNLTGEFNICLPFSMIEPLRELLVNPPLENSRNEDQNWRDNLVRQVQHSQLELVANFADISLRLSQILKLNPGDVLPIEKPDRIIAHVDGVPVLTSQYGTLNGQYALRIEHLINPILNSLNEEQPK

## CheY-P (from UniProt P0AE67)
  Kd: 3.06 µM
